Tested on: peptide library, one residue held at a place counted from the S/T acceptor
Test: relative phosphorylation of the sub-library (ratio to the mean residue at this position); human; higher = residue favoured
Summary of the method: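 Purified recombinant kinases (human or orthologue constructs) were incubated in 384-well plates with biotinylated degenerate peptide sub-libraries, each fixing one residue at one position around a central Ser/Thr. Peptides were at 50 μM, with 50 μM ATP spiked with γ-32P-ATP, for 90 min under kinase-specific conditions. Spots on streptavidin membranes were phosphorimaged and quantified by densitometry. Relative sub-library phosphorylation is a ratio to the mean residue at that position.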

Sequence of CLK3, construct: Full length (P49761 whole entry, looked up): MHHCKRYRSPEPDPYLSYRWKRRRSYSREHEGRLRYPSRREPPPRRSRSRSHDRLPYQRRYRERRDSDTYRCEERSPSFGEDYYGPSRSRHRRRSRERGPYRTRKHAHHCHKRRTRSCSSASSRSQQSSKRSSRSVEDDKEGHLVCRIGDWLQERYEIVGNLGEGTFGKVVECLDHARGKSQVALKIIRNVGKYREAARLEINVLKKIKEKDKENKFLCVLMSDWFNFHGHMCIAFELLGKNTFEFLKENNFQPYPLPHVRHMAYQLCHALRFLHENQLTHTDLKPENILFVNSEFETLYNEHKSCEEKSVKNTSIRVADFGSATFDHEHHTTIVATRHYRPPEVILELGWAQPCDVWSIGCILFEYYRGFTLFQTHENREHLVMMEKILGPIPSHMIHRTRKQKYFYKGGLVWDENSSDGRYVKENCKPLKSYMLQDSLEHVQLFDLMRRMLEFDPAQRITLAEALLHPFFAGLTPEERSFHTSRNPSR
Sequence of TTK, construct: Full length (P33981 whole entry, looked up): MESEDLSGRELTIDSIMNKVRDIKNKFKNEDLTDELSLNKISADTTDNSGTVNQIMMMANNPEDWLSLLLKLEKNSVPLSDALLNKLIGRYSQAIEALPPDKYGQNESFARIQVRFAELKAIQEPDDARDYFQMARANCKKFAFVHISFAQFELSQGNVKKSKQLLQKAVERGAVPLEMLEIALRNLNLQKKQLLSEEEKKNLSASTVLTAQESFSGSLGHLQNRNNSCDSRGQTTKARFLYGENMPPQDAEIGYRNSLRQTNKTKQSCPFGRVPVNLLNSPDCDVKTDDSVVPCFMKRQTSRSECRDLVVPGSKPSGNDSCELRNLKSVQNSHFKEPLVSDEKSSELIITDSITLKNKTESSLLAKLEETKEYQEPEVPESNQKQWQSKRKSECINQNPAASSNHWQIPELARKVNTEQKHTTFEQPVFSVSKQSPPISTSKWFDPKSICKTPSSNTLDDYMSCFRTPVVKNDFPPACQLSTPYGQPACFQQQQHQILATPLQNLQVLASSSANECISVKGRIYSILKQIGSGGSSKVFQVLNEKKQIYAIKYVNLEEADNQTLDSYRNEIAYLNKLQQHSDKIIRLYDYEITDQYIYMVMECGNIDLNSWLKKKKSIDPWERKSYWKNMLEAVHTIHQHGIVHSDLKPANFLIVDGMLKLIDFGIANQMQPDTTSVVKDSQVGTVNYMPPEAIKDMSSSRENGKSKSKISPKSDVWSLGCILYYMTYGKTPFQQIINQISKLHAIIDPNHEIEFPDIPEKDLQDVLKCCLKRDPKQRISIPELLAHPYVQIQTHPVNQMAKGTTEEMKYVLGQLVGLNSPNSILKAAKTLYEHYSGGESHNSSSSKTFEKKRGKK

TTK, construct: Full length (from UniProt P33981)
relative phosphorylation
Conditions | at +1 | at +2 | at +3 | at +4 | at -1 | at -2 | at -3 | at -4 | at -5
A fixed | 0.968 | 0.742 | 0.497 | 0.739 | 0.798 | 0.532 | 0.845 | 0.952 | 0.97
D fixed | 0.397 | 0.389 | 0.331 | 0.48 | 1.22 | 4.68 | 2.19 | 1.55 | 1.15
E fixed | 0.883 | 0.339 | 0.26 | 0.39 | 0.866 | 2.91 | 1.94 | 1.47 | 0.983
F fixed | 0.541 | 0.748 | 1.48 | 0.895 | 0.671 | 0.373 | 0.55 | 0.76 | 0.791
G fixed | 1.18 | 0.501 | 0.552 | 1.15 | 0.568 | 0.922 | 1.32 | 1.24 | 1.26
H fixed | 0.952 | 1.44 | 0.97 | 1.42 | 1.78 | 0.675 | 1.18 | 1.05 | 1.25
I fixed | 1.29 | 0.784 | 1.89 | 0.746 | 0.696 | 0.294 | 0.419 | 0.51 | 0.604
K fixed | 1.28 | 1.61 | 0.956 | 1.76 | 1.26 | 0.456 | 0.966 | 1.02 | 1.1
L fixed | 1.02 | 0.802 | 2.26 | 0.738 | 0.849 | 0.336 | 0.537 | 0.694 | 0.757
M fixed | 1.49 | 1.02 | 1.29 | 0.868 | 0.905 | 0.453 | 0.651 | 0.865 | 0.884
N fixed | 0.685 | 1.29 | 0.723 | 1.28 | 1.47 | 1.82 | 1.29 | 1.22 | 1.1
P fixed | 0.275 | 0.773 | 0.532 | 0.823 | 0.891 | 0.504 | 0.959 | 0.984 | 1.39
Q fixed | 1.71 | 0.974 | 0.748 | 1.1 | 1.16 | 0.873 | 0.975 | 0.981 | 0.857
R fixed | 1.51 | 1.91 | 1.01 | 1.64 | 1.15 | 0.854 | 1.29 | 1.16 | 1.09
V fixed | 1.45 | 0.963 | 1.23 | 0.651 | 0.837 | 0.337 | 0.487 | 0.675 | 0.784
W fixed | 0.704 | 1.75 | 1.29 | 1.21 | 0.766 | 0.529 | 0.66 | 0.964 | 0.984
Y fixed | 0.659 | 0.971 | 0.984 | 1.12 | 1.12 | 0.453 | 0.734 | 0.899 | 1.04
pThr fixed | 0.734 | 0.393 | 0.576 | 0.455 | 0.7 | 1.12 | 1.75 | 1.37 | 1.41
pTyr fixed | 0.362 | 0.27 | 0.696 | 0.45 | 0.787 | 0.765 | 0.997 | 0.781 | 1.47

CLK3, construct: Full length (from UniProt P49761)
relative phosphorylation
Conditions | at +1 | at +2 | at +3 | at +4 | at -1 | at -2 | at -3 | at -4 | at -5
A fixed | 0.914 | 1.22 | 0.84 | 1.18 | 0.969 | 1.52 | 0.79 | 0.812 | 1.06
D fixed | 0.555 | 1.69 | 0.683 | 1.62 | 0.872 | 1.26 | 1.43 | 1.4 | 1.87
E fixed | 1.27 | 1.91 | 0.622 | 1.34 | 0.915 | 1.8 | 1.19 | 1.38 | 1.04
F fixed | 0.282 | 0.536 | 0.348 | 0.694 | 0.306 | 0.342 | 0.339 | 0.516 | 0.773
G fixed | 0.984 | 0.987 | 0.917 | 0.938 | 1.03 | 1.35 | 0.853 | 1.1 | 0.928
H fixed | 0.735 | 0.971 | 1.07 | 0.869 | 0.799 | 0.732 | 0.607 | 0.885 | 0.899
I fixed | 0.382 | 0.381 | 0.47 | 0.681 | 0.203 | 0.33 | 0.282 | 0.417 | 0.523
K fixed | 2.02 | 1.6 | 3.25 | 2.08 | 2.62 | 1.33 | 2.38 | 1.38 | 1.53
L fixed | 0.478 | 0.506 | 0.438 | 0.748 | 0.376 | 0.307 | 0.31 | 0.492 | 0.599
M fixed | 0.659 | 0.574 | 0.424 | 0.724 | 0.405 | 0.39 | 0.359 | 0.613 | 0.492
N fixed | 1.06 | 1.03 | 1.1 | 0.885 | 1.55 | 0.853 | 0.779 | 0.961 | 0.846
P fixed | 4.92 | 1.69 | 1.81 | 0.963 | 2.15 | 1.9 | 1.76 | 1.87 | 0.949
Q fixed | 0.983 | 0.898 | 0.707 | 1.01 | 1.62 | 0.904 | 0.852 | 0.996 | 0.973
R fixed | 0.409 | 1.35 | 2.93 | 1.1 | 2.1 | 2.72 | 3.78 | 2.05 | 2.05
V fixed | 0.619 | 0.52 | 0.457 | 0.796 | 0.367 | 0.432 | 0.436 | 0.535 | 0.735
W fixed | 0.368 | 0.628 | 0.483 | 0.732 | 0.37 | 0.39 | 0.457 | 0.879 | 1.07
Y fixed | 0.368 | 0.517 | 0.439 | 0.649 | 0.348 | 0.435 | 0.403 | 0.704 | 0.674
pThr fixed | 0.887 | 2.44 | 0.951 | 2.16 | 0.555 | 0.817 | 1.05 | 1.27 | 1.12
pTyr fixed | 1.23 | 0.956 | 0.877 | 1.3 | 1.1 | 0.87 | 0.997 | 1.05 | 0.98

Source: the supplement of paper PMC9876800
